Data as given in the supplement of paper PMC10724198.
± gives the standard deviation of the averaged measurements.

How the values were obtained:
Saccharomyces cerevisiae [1] = assay: protein stability index of tFT-peptide fusion (C-terminal peptide) (PSI (0-1 scale)); higher = more stable (slower turnover)
Method: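 MPS profiling in S. cerevisiae of the tFT-X12 degron library: putative degron peptides plus stable controls, 12 aa, fused to the C-terminus of a sfGFP-mCherry timer. Cells are FACS-sorted into 8 mCherry/sfGFP bins and deep-sequenced. PSI runs from 0 (unstable) to 1 (stable). Backgrounds are wild type, das1Δ and doa10Δ at 30 °C, and wild type, das1Δ, cdc34-1 and cdc53-1 at 37 °C; 2-3 technical replicates each.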

Saccharomyces cerevisiae [2] = assay: as above; settings: genetic background: wild type; temperature: 30 C
[3] = genetic background: cdc34-1, temperature: 37 C
[4] = genetic background: cdc53-1, temperature: 37 C
[5] = genetic background: das1 deletion, temperature: 30 C
[6] = genetic background: das1 deletion, temperature: 37 C
[7] = genetic background: doa10 deletion, temperature: 30 C
[8] = genetic background: wild type, temperature: 30 C
[9] = genetic background: wild type, temperature: 37 C
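Further: PSI is a weighted mean of sequencing reads over stability bins, variants kept only with over 10 reads, mCherry proximal and sfGFP distal, peptide attached via GGGS linker.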

Sequence | protein stability index (Saccharomyces cerevisiae [1]; [3]) | protein stability index (Saccharomyces cerevisiae [1]; [4]) | protein stability index (Saccharomyces cerevisiae [1]; [5]) | protein stability index (Saccharomyces cerevisiae [1]; [6]) | protein stability index (Saccharomyces cerevisiae [1]; [7]) | protein stability index (Saccharomyces cerevisiae [1]; [8]) | protein stability index (Saccharomyces cerevisiae [1]; [9]) | protein stability index (Saccharomyces cerevisiae [2])
FFFCFFIFCFSL | 0.327 ± 0.005 | 0.409 ± 0.025 | 0.333 ± 0.026 | 0.463 ± 0.013 | 0.335 ± 0.046 | 0.324 ± 0.015 | 0.396 ± 0.036 | 0.3698 ± 0.0032
GSLGHCWFLFGV | 0.59 ± 0.038 | 0.538 ± 0.011 | 0.539 ± 0.022 | 0.461 ± 0.0075 | 0.556 ± 0.064 | 0.538 ± 0.0098 | 0.475 ± 0.021 | 0.463 ± 0.016
PGSIGVVIAVRS | 0.461 ± 0.019 | 0.512 ± 0.013 | 0.345 ± 0.044 | 0.574 ± 0.02 | 0.2863 ± 0.0007 | 0.363 ± 0.015 | 0.517 ± 0.0066 | 0.464 ± 0.0078
SVQICGFWLILG | 0.512 ± 0.031 | 0.604 ± 0.046 | 0.416 ± 0.026 | 0.5955 ± 0.0046 | 0.317 ± 0.0037 | 0.333 ± 0.011 | 0.53992 ± 0.00031 | 0.386 ± 0.06
FLVFPLLIQFFL | 0.2311 ± 0.0022 | 0.303 ± 0.015 | 0.356 ± 0.04 | 0.4346 ± 0.0039 | 0.346 ± 0.0097 | 0.257 ± 0.014 | 0.323 ± 0.014 | 0.36 ± 0.019
PALYLSLWFLFP | 0.534 ± 0.056 | 0.606 ± 0.023 | 0.445 ± 0.043 | 0.603 ± 0.023 | 0.452 ± 0.013 | 0.456 ± 0.037 | 0.5761 ± 0.0011 | 0.512 ± 0.045
LAVRSGFPFGLF | 0.642 ± 0.034 | 0.757 ± 0.013 | 0.674 ± 0.012 | 0.783 ± 0.036 | 0.117 ± 0.017 | 0.122 ± 0.03 | 0.224 ± 0.014 | 0.249 ± 0.0026
VGLWFLCSLAFS | 0.444 ± 0.0079 | 0.478 ± 0.015 | 0.34 ± 0.037 | 0.5344 ± 0.0014 | 0.308 ± 0.015 | 0.346 ± 0.023 | 0.495 ± 0.007 | 0.401 ± 0.006
RIRRVMHLYTNN | 0.475 ± 0.027 | 0.705 ± 0.071 | 0.641 ± 0.027 | 0.708 ± 0.024 | 0.0717 ± 0.0049 | 0.0844 ± 0.012 | 0.109 ± 0.044 | 0.121 ± 0.0048
GCLVVVGFFSVF | 0.214 ± 0.049 | 0.416 ± 0.041 | 0.255 ± 0.028 | 0.458 ± 0.028 | 0.2 ± 0.011 | 0.241 ± 0.0093 | 0.409 ± 0.018 | 0.326 ± 0.033
FFAFLRFFIFYW | 0.319 ± 0.058 | 0.266 ± 0.087 | 0.349 ± 0.032 | 0.435 ± 0.0075 | 0.419 ± 0.0083 | 0.328 ± 0.0074 | 0.451 ± 0.026 | 0.448 ± 0.063
YFIVVSWFLVCW | 0.0981 ± 0.019 | 0.199 ± 0.022 | 0.114 ± 0.029 | 0.218 ± 0.0028 | 0.072 ± 0.017 | 0.121 ± 0.0079 | 0.168 ± 0.029 | 0.184 ± 0.005
GGRHYGILDLSL | 0.638 ± 0.063 | 0.708 ± 0.013 | 0.677 ± 0.019 | 0.719 ± 0.024 | 0.6927 ± 0.0056 | 0.677 ± 0.025 | 0.6992 ± 0.00076 | 0.7174 ± 0.0062
WYAGIVFTRVWM | 0.54 ± 0.01 | 0.611 ± 0.026 | 0.487 ± 0.015 | 0.654 ± 0.03 | 0.466 ± 0.015 | 0.482 ± 0.02 | 0.622 ± 0.013 | 0.5 ± 0.0095
RHQTDIVTATQK | 0.694 ± 0.05 | 0.724 ± 0.026 | 0.636 ± 0.036 | 0.717 ± 0.012 | 0.642 ± 0.062 | 0.685 ± 0.014 | 0.70375 ± 0.00022 | 0.562 ± 0.097
LQYSKALAVICG | 0.218 ± 0.034 | 0.264 ± 0.027 | 0.235 ± 0.041 | 0.367 ± 0.01 | 0.19 ± 0.017 | 0.221 ± 0.033 | 0.317 ± 0.023 | 0.374 ± 0.05
LPPYPPPVPILI | 0.449 ± 0.0069 | 0.455 ± 0.021 | 0.362 ± 0.031 | 0.519 ± 0.0006 | 0.322 ± 0.0038 | 0.39 ± 0.026 | 0.489 ± 0.0053 | 0.493 ± 0.017
SPCSNFLECLSF | 0.714 ± 0.03 | 0.7431 ± 0.0018 | 0.643 ± 0.0079 | 0.729 ± 0.017 | 0.626 ± 0.025 | 0.641 ± 0.017 | 0.733 ± 0.0071 | 0.561 ± 0.11
TRSLLFANRCIV | 0.66 ± 0.047 | 0.706 ± 0.033 | 0.619 ± 0.017 | 0.737 ± 0.0079 | 0.269 ± 0.0075 | 0.304 ± 0.025 | 0.503 ± 0.009 | 0.396 ± 0.014
FLSVGFSCSFVC | 0.674 ± 0.082 | 0.676 ± 0.034 | 0.599 ± 0.06 | 0.669 ± 0.04 | 0.375 ± 0.024 | 0.4115 ± 0.0017 | 0.609 ± 0.013 | 0.4939 ± 0.00094
